Laboratory results reported in US20100092994A1.
Square brackets hold non-standard residues; d marks the D form. Ends that are not written are not given here. Hyp = O=C(O)[C@@H]1C[C@@H](O)CN1

What was measured:
[1] = molecular target: monoclonal antibody derived from clone 11G7; experiment: competitive ELISA: free peptide prereacted with antibody supernatant, then added to the solid-phased oxidatively modified peptide
[2] = molecular target: monoclonal antibody derived from clone 11A5 (Anti HP-FGA MAb Clone: 11A5; hybridoma FERM AP-21698); experiment: as above
[3] = molecular target: monoclonal antibody derived from clone 11G7; experiment: competitive ELISA; reference is the unmodified peptide ESS-HP (SEQ ID NO: 2)
[4] = molecular target: monoclonal antibody derived from clone 11A5 (Anti HP-FGA MAb Clone: 11A5; hybridoma FERM AP-21698); experiment: as above

IC50 [1]: 0.4 µg/mL
IC50 [2]: 0.4 µg/mL
fold of 50% inhibition against ESS-HP (SEQ ID NO: 2) [3]: > 25 times
fold of 50% inhibition against ESS-HP (SEQ ID NO: 2) [4]: > 25 times
Binder: ESSSHH[Hyp]GIAEFPSR [synthetic peptide ESS (SEQ ID NO: 4), ESSSHHP(OH)GIAEFPSR, oxidatively modified FGA partial peptide]
